Measured values taken from US20110020802, “NUCLEIC ACIDS, METHODS AND KITS FOR THE DIAGNOSIS OF DYT6 PRIMARY TORSION DYSTONIA” (Mount Sinai School of Medicine of New York University, published 2011).

Target: T1, THAP1 wild type (Homo sapiens, UniProt Q9NVV9 SEQ:1-213)
T1 sequence: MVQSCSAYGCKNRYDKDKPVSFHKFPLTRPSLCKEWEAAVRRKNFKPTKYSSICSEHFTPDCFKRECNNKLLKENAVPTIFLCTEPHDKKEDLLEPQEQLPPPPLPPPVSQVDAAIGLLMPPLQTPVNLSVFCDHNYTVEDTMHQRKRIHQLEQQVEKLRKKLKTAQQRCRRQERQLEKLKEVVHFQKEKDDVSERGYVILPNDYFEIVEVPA
Experiment: EMSA; specific band supershifted by anti-THAP1 and competed by >200x unlabeled THABS; 150 mM KCl, 20 mM Tris pH 7.5, poly(dI-dC), room temperature
Conditions: tags: N-terminal V5 (pcDNA3.1/nV5); label: 5'-32P
Procedure: Double-stranded oligonucleotide was prepared by annealing synthetic complementary oligonucleotides (5′-[…]-3′ (SEQ ID NO: 17) and the reverse complement of this oligo 5′ […]-3′ (SEQ ID NO: 48)) in 20 mM Tris/HCl (pH 7.5), 10 mM MgCl2, 50 mM NaCl, 1 mM dithiothreitol (DTT) by heating for 5 min at 95° c, and cooling to room temperature overnight. Probes were end-labeled with [gamma-³²P]ATP using T4 polynucleotide kinase. Unincorporated nucleotides were removed by column chromatography (illustra MicroSpin™ G-25 Columns, GE Healthcare), according to the manufacturer's protocol. […] Following buffer at 150 V at room temperature, gels were dried and exposed to storage Phosphor screens that were scanned and analyzed using a Typhoon phosphorimager (GE Healthcare).
The two constructs were expressed in an in vitro transcription/translation (IVTT) system and assessed by western for equal levels of protein expression (FIG. 4A). When the radiolabeled THABS probe was incubated with the IVTT wild-type THAP1, a major shifted band was detected (FIG. 4B, lane 6, arrowhead). […]

B1: THABS probe (dsDNA)
DNA 1: AGCAAGTAAGGGCAACTACTTCAT
DNA 2: ATGAAGTAGTTGCCCTTACTTGCT
  binding result: binds
